Earlier results in US20020001615A1, “Combined interferon alfa and lipsosmal-encapsulated all-trans retinoic acid, including preparation and use” (Aronex Pharmaceuticals, Inc., priority 2000, published 2002).
Like-named read-outs stand apart in the source and are kept apart here.

How the values were obtained:
[1] = after three months on therapy, concomitant IFN

peak levels of atra in the serum [1] | Compound | stable for (time) (at 30° C.) | stable for (time) (at 35° C.)
declined | CC1=C(/C=C/C(C)=C/C=C/C(C)=C/C(=O)O)C(C)(C)CCC1 [ATRA, all-trans retinoic acid] |  | 
 | Interferon alfa-2b | up to 14 days | up to 7 days
